From the supplement of paper PMC9942255 come the findings set out here.

In the data set the test system is Bacillus subtilis DB104 (SP-AmyQ fusion secretion). The experiment in a line: AmyQ secretion efficiency, weighted average sort bin (1 = best secretion, 10 = worst) (bin number (weighted average, 1-10)); higher = lower secretion efficiency. The gist of the method: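 A B. subtilis DB104 library carrying amyE-integrated fusions of designed signal peptides to mature AmyQ was encapsulated at about 0.3 cells per ~65 nL alginate bead with fluorescein-starch and grown about 13 h at room temperature. Following nile red staining, occupied beads were flow-sorted as large particles into 10 equally populated bins by green/red fluorescence ratio, and the bin amplicons were Illumina-sequenced. The secretion score is the read-frequency-weighted average bin number normalised to beads per bin, leaving out low-abundance sequences.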

As for MYSKGLLAGALTATVLFGTCAVDVPGIISPKTAEAASQ, the AmyQ secretion efficiency worked out at 2.38. For the sequence MTKKAWFLPLVCVLLIDEDLAPAASASAQTT, the AmyQ secretion efficiency came to 2.58.

Sequence MRKKRNVITCVMAASLTLGSLLPAGYASAKED returned an AmyQ secretion efficiency of 3.03. In the case of MKKAAAVLLSLGLVFGFSYGAGHVAEGKTK, the AmyQ secretion efficiency was found to be 2.6. The sequence MFKKLLLATSALTFSLSLVLVLSIHAKAQEV had an AmyQ secretion efficiency of 3.44. As to MKKWLIIAVSLAIAIVLFMYTKGEKKAAGM, the AmyQ secretion efficiency was 5.84. MKKGIIRFRRKKFVLFFALSTGITGVQAAPA: the AmyQ secretion efficiency is 4.49. The result for MKTKTLFIFSAILTLSIFAPNEVFAQTA reads 1.58. The figure for MNLRKILLSSALSLGMLVSAAPVLVTSS is 6.87. As for MKKWIYVVLVLSIAGIGGKRKKKKVHAASS, the AmyQ secretion efficiency is 7.49.

MLKKKWMVGLLAGCLAAGGFSYNAFPTEN registered an AmyQ secretion efficiency of 5.71. Turning to MKKVLMAFIICLSLILSVLAAPPSGAKGESV, the AmyQ secretion efficiency came to 2.46. On to MLMLLSTLLIGIMLLTFAPSAFAKQD, for which the AmyQ secretion efficiency is 4.38. In turn, MMIKQCYGCKSLLVFGTTAAHAEET showed an AmyQ secretion efficiency of 7.62. MKLKSKLLLSCLALSTVFVATTIANNPTH: the AmyQ secretion efficiency was 5.17. With MKVLLSALLLLLFARRKSASGKKL, the AmyQ secretion efficiency was determined as 7.09.

MKKRFFGPIILAFILFAAIAIPS yielded an AmyQ secretion efficiency of 6.38.

The sequence MKWMCSICCAAVLLAGGAAQHEAV registered an AmyQ secretion efficiency of 8.16. On to MKSKGSIMACLILFSFTITTFINEISAFSN, for which the AmyQ secretion efficiency came to 6.8.

In turn, MKNMSCKLVVSVTLFFSFLTIGPLAHTQNS gave an AmyQ secretion efficiency of 4.17. In turn, MKKKLAAGLTASAIVGTTLVVTPAELATI returned an AmyQ secretion efficiency of 5.54. The result for MKKKRVMLALTAAAGLGLTALHSAPAAKAAPL reads 2.47; that for MKKTIMSFVAVAALSTTAFEEDHASAKEI, 2.56. In the case of MSTFLIGAGVAAVILSGWFIADHQTHSQEM, the AmyQ secretion efficiency turned out to be 6.2. The sequence MFKKHTKRKRRKFLLASAVLAKPIEAHTV registered an AmyQ secretion efficiency of 7.89. The sequence MKSKGSIMACLILFSFTITTFINTETSSAFSN registered an AmyQ secretion efficiency of 3.41.

As for MKKKLAAGLTASAIVGTTLVVTPAERATI, the AmyQ secretion efficiency worked out at 5.86. MRMLWRMMISLALCGLALTLAPCAQAAEP gave an AmyQ secretion efficiency of 1.79. MKKRITYSLLALLAVVATDSSKAKAAEA came in with an AmyQ secretion efficiency of 2.87. The result for MRFTKVVGFLSVLGLAAKKRKRRAQAEKA reads 7.6. The sequence MKMKSGMEQAVSVLLLLSRLPVQASITSE returned an AmyQ secretion efficiency of 7.01. With MKNMSCKLVVSVTLFFSFLDEDPLAHAQNS, the AmyQ secretion efficiency was determined as 2.75. The result for MKLKSKLLLSCLALSTVFVATTIANSPTH reads 3.78; that for MRIFKKAVFVIMISFLIATVNVNTAHIAID, 6.89; that for MRHKIIGRYQTSSGQIIIGNMIGGGGGSEATSK, 7.7. With MLKKIALTLCPAIVGSLLFFTAPASRHVS, the AmyQ secretion efficiency was found to be 6.05. The sequence MTMLRKIIGWILLLCIIPLFAFTVIASGAED had an AmyQ secretion efficiency of 6.01. The sequence MKKLVLCVSILAVILSGVGLTQLS returned an AmyQ secretion efficiency of 5.94.

MHLIRAAGAVCLAVVLIAGCRFNEDQHQFFAEGENT returned an AmyQ secretion efficiency of 4.63. In turn, MTKWIVLFLVLIAAAISIFVYVSTGSEK returned an AmyQ secretion efficiency of 2.48. With MLKKKWMVGLLAGCLAAGGFSYNLFATEN, the AmyQ secretion efficiency amounted to 5.92. The figure for MNFKKTVVSALSISALALSVSGVASARRK is 6.94; for MKKAAAVLLSLGLVFGFSYGAGHVAETKTK it is 5.95; for MLKKKWMVGLLAGCLAAGGFSYNGSFVAFATEN it is 3.96.

Sequence MKKRLILLSAASLAFFAMSGSAQAAAY yielded an AmyQ secretion efficiency of 2.92.

On to MRNLTKTSLLLAGLCTAAQMVFVTHASAADE, for which the AmyQ secretion efficiency was found to be 2.81. The result for MTKLKMLSMLTVMIASLFIFSSQALGVQY reads 3.68. The sequence MKKRLIAPMLLSAASLAFFAMSGSDQAAAY registered an AmyQ secretion efficiency of 4.18. As for MNILLILLSSALSFGMLISAVPALAAGT, the AmyQ secretion efficiency is 2.56. Turning to MKKRINLIGFLVLVPALIMSGITLIEANKK, the AmyQ secretion efficiency was found to be 7.4. Sequence MFKKHTISLLIIFLLASAVLAKPIEADEE yielded an AmyQ secretion efficiency of 3.49. On to MLCVMMLLFSAIASFPVSCQAKDQ, for which the AmyQ secretion efficiency is 5.97.

MFNRLFRVCFLAALIMAFTLPNSDYAQKP: the AmyQ secretion efficiency was determined as 6.44.

The sequence MMKKLFHSTLIVLLFFSFFGVQPEIHAKKQ displayed an AmyQ secretion efficiency of 2.24. The result for MKRIRIPMTLALGAALTIAPLSFASCEEN reads 4.65; that for MKKWMITIAMTMLILAGIALFVFISPLKSHKT, 1.1. MLTKRQLTIYIMLLGLIAWFPGAAQAEEK: the AmyQ secretion efficiency was 2.9.

For MLFLLVSLRVWMVFLMNWVTPDRKTAAAAVY, the AmyQ secretion efficiency is 6.62. On to MFNRLFRVCFLAALIMAFTLPNSVVTSVYAQKP, for which the AmyQ secretion efficiency is 2.32. With MHLIRAAGAVCLAVVLIAGCRFNEDQHQAEGDED, the AmyQ secretion efficiency is 6.29. In turn, MFMKSGMEQAVSVLLLLSRLPVQASLTSE showed an AmyQ secretion efficiency of 9.96. Consider MKLWMRKTLRRKKRKVTFGLVSPPAALMADKP, for which the AmyQ secretion efficiency is 7.28. The result for MKKAFLVFLSVVLVTTVFLVKQQESVAQKKQL reads 4.43; that for MKKCKRRKTTIALILSLSTNAFAKNT, 7.38. The result for MKKLIQVMIMFTLLLTMAFSADAADS reads 4.44. Take MKKSQYSRQSKCTFVLFSVHPIAAAAADS: the AmyQ secretion efficiency was 7.33. MFNRLFRVCFLAALIMAFSSSSLFISLVTLPNSVYAQKP registered an AmyQ secretion efficiency of 4.04. MKRLLSTLLIGIMLLEDEPSAFAKQD had an AmyQ secretion efficiency of 1.9. Consider MKRWMRKTLVVLFTIVTFGLVSPPAALMADKP, for which the AmyQ secretion efficiency was found to be 2.03. As for MLKKKWMVGLLAGCLAAGDDEYNAFATEN, the AmyQ secretion efficiency was 4.98. MKKRLIGFLVLVPALIMSGITLIEANPY returned an AmyQ secretion efficiency of 7.07. As to MKKQIITATTAVVLGSTLFAGAASIQSI, the AmyQ secretion efficiency was found to be 5.61. For the sequence MKKGIIRTFFLLVSFVLFFALSTGITGVQAAPA, the AmyQ secretion efficiency stood at 2.73. Sequence MKKGIRFLLVSFVLFFALSTGITGVQAAPA gave an AmyQ secretion efficiency of 2.35. Consider MKTKTFLFIFSAILTLSIFAPNETFAQTA, for which the AmyQ secretion efficiency is 2.73.

With MKKKQVMLALTAAAGLGLTALHSAPAAKAAPD, the AmyQ secretion efficiency turned out to be 2.15. The figure for MKLAKRVSALTPSTTLAITAKLKEL is 6.8. Turning to MKSLPYTIALLFCGLIIVSMAAKGHED, the AmyQ secretion efficiency was 7.33. As for MKRSISIFITCLLITLLTMGGMIASPASIAGT, the AmyQ secretion efficiency was 4.57.

In turn, MKKSQYFIVFICFFVLFSVHPIAVAAADS had an AmyQ secretion efficiency of 3.83. The figure for MLKRTSFVSSLFISSAVLLSILLGSGQAHAQSA is 2.06.
